Measurements: patent publication US20160046724A1 (Novartis, published 2016)

T1: BCMA (recombinant, form not given) (UniProt Q02223 1-54, limits assumed)
T1 construct: also called BCMA substrate; Bio-BCMA
T1 sequence (looked up): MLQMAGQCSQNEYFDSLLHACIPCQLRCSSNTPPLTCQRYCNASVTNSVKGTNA

B1: BCMA-4NP (sample in the affinity and competition assays) (scFv)
scFv: QVQLVQSGAEVKKPGSSVKVSCKASGGTFSNYWMHWVRQAPGQGLEWMGATYRGHSDTYYNQKFKGRVTITADKSTSTAYMELSSLRSEDTAVYYCARGAIYNGYDVLDNWGQGTLVTVSSGGGGSGGGGSGGGGSGGGGSDIQMTQSPSSLSASVGDRVTITCSASQDISNYLNWYQQKPGKAPKLLIYYTSNLHSGVPSRFSGSGSGTDFTLTISSLQPEDFATYYCQQYRKLPWTFGQGTKLEIKR
notes: also called BCMA-4NP control sample
B2: BCMA-4NP tool CAR (other, not shown: a dimerising Fc or GST)
chain: B1 scFv
notes: Tool CAR with humanized murine anti-BCMA scFv (VH and VL from WO2012/163805); also called 126021
B3: BCMA-15 CAR (other)
chain: EVQLVESGGGLVQPGGSLRLSCAVSGFALSNHGMSWVRRAPGKGLEWVSGIVYSGSTYYAASVKGRFTISRDNSRNTLYLQMNSLRPEDTAIYYCSAHGGESDVWGQGTTVTVSSASGGGGSGGRASGGGGSEIVLTQSPGTLSLSPGERATLSCRASQSIGSSSLAWYQQKPGQAPRLLMYGASSRASGIPDRFSGSGSGTDFTLTISRLEPEDFAVYYCQQYAGSPPFTFGQGTKVEIKTTTPAPRPPTPAPTIASQPLSLRPEACRPAAGGAVHTRGLDFACDIYIWAPLAGTCGVLLLSLVITLYCKRGRKKLLYIFKQPFMRPVQTTQEEDGCSCRFPEEEEGGCELRVKFSRSADAPAYKQGQNQLYNELNLGRREEYDVLDKRRGRDPEMGGKPRRKNPQEGLYNELQKDKMAEAYSEIGMKGERRRGKGHDGLYQGLSTATKDTYDALHMQALPPR
notes: also called 139114 Full CAR; PY43-48LB
B4: BCMA-Fc antigen (Fc fusion)
chain: AGQCSQNEYFDSLLHACIPCQLRCSSNTPPLTCQRYCNASVTNSVKG
notes: Bought reagent; also called BCMA fc fusion protein; recombinant BCMA-Fc; not shown: Fc region

Columns and labels:
[1] = biological target: T1, BCMA (recombinant, form not given); experiment: affinity assay, 1:1 binding fit; instrument and sample format not stated
BCMA-Fc antigen = biological target: B4; experiment: flow cytometry of CAR-transduced JNL cells stained with BCMA-Fc antigen
Method: Jurkat-NFAT-luciferase (JNL) cells transduced with BCMA CAR constructs were evaluated for activation in response to BCMA-expressing target cell lines. Small-scale viral supernatant samples were generated in HEK293T cells for transduction of JNL cells. On Day 3 following transduction, BCMA CAR-transduced JNL cells were incubated with target cells at an effector-to-target (E:T) ratio of 6:1. Target cell lines were: K562-BCMA (engineered to stably express BCMA), K562 (parental line), and BCMA positive multiple myeloma cell lines, NCI-H929 and RPMI 8226. JNL activation was measured using Bright-Glo substrate (Promega) on Day 4. CAR expression on transduced JNL was assessed on Day 7 with BCMA-Fc antigen and Biotin-Protein L reagent (Table 7).

BCMA-10 CAR = biological target: T2, BCMA-10 CAR; experiment: CAR-expressing T cells incubated with recombinant BCMA-Fc; staining of CAR+ cells
T2 construct: also called 139109 Full CAR; EG63-98LB

**Q.** For B1, which Kd [1] is on record?
**A.** Its Kd is 0.1 nM.

**Q.** What about the koff [1] of the same binder?
**A.** The koff was 0.000172 s⁻¹.

**Q.** What about the kon [1] of the same binder?
**A.** Its kon is 1.58e+06 M⁻¹ s⁻¹.

**Q.** Which “% CAR+ (BCMA-Fc detection)” value (BCMA-Fc antigen) does the source give for B2 here?
**A.** Its value is 28.3%.

**Q.** For B3, which “% CAR+ (BCMA-Fc detection)” value (BCMA-Fc antigen) is on record?
**A.** Its value is 36.9%.

**Q.** Does B4 bind (BCMA-10 CAR)?
**A.** Result: binds
